Values of other authors in publication PMC10813780.

Biological target: TLR4 (Homo sapiens) (UniProt O00206)
Sequence of UniProt O00206 (O00206 24-839): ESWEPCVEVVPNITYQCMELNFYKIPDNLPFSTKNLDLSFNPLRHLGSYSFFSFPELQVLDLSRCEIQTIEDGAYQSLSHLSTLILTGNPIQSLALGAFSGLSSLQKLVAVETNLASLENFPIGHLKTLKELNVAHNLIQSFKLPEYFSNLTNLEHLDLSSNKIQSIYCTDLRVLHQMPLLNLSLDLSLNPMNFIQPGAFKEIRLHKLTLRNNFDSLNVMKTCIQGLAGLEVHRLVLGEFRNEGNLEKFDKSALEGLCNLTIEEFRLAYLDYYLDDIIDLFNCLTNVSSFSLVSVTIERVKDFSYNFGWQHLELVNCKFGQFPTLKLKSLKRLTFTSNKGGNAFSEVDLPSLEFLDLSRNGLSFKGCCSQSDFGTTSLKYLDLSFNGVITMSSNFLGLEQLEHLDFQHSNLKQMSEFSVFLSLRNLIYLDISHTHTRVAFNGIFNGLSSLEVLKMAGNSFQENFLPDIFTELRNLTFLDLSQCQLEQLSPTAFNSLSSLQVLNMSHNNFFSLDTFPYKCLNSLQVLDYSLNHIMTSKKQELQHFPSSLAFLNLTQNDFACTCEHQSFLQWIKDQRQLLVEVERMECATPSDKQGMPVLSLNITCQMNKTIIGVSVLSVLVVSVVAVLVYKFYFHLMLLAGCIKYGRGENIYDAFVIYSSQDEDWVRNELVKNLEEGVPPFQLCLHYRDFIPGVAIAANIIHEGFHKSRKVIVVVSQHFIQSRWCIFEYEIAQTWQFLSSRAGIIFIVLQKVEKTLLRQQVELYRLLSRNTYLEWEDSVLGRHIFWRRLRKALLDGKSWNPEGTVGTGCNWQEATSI

Kd: 430 nM
Substance: API5 (from UniProt Q9BZZ5)
